Literature values as cited in PMC8959454.
pKd: −log10 of the molar value.

Legend:
CKAP4 ECD (Homo sapiens) = CKAP4 ECD (Homo sapiens) (UniProt Q07065)
LRP6 (Homo sapiens) = LRP6 (Homo sapiens) (UniProt O75581)
Sequence of UniProt O75581 (O75581 20-1370): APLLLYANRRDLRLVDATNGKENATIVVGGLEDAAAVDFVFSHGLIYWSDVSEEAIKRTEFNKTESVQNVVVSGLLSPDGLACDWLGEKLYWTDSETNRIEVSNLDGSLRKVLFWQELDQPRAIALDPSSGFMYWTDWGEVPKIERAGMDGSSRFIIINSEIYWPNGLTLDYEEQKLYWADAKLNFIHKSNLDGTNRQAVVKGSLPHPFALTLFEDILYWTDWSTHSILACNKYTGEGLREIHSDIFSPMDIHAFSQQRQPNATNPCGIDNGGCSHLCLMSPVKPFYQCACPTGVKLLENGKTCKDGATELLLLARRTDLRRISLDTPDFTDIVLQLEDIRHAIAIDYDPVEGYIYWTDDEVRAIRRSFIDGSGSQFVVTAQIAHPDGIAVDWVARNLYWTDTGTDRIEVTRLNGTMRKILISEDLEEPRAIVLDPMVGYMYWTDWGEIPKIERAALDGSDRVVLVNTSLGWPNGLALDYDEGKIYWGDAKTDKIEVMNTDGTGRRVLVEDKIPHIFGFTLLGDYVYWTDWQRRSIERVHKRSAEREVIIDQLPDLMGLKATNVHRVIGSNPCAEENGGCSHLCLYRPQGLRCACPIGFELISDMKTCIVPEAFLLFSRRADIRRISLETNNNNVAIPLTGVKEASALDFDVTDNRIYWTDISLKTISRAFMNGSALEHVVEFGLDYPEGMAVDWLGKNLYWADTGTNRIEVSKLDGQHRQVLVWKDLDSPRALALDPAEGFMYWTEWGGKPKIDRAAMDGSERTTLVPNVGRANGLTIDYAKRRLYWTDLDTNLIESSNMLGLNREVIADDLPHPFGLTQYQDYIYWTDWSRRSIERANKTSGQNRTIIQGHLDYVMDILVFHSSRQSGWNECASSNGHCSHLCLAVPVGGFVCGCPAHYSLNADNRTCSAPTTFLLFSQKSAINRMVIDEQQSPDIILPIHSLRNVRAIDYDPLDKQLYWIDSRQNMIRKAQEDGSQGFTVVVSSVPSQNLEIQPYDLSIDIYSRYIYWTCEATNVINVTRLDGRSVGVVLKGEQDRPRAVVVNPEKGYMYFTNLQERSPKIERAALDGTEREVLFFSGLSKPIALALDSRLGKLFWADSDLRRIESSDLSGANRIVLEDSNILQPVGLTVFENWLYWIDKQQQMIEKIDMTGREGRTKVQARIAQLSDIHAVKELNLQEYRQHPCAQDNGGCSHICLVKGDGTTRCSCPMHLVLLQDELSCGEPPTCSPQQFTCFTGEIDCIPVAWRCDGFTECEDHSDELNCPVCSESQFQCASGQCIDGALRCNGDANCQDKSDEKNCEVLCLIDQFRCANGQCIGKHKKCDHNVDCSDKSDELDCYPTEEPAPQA

Sequence of UniProt Q07065 (Q07065 128-602): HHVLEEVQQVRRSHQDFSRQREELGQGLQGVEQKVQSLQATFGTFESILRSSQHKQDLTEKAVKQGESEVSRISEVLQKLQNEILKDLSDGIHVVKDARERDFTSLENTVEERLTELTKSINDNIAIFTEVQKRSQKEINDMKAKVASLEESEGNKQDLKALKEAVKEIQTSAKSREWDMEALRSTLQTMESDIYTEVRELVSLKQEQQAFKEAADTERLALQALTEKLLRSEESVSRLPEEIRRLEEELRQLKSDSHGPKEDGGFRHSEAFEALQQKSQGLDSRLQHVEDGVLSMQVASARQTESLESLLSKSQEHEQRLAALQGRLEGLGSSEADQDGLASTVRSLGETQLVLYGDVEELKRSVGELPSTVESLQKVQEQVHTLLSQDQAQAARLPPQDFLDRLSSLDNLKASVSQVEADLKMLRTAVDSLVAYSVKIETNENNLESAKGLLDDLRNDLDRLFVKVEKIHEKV

pKd (CKAP4 ECD (Homo sapiens)): 9.38
pKd (LRP6 (Homo sapiens)): 9.38
Substance: DKK1 (from UniProt O94907)
